Results on four molecules are retold here after PMC8476798, “SLURP-1 Controls Growth and Migration of Lung Adenocarcinoma Cells, Forming a Complex With α7-nAChR and PDGFR/EGFR Heterodimer” (Frontiers in Cell and Developmental Biology, 2021).

For assay [1], the target named is nicotinic acetylcholine receptor of α7 type (α7-nAChR) (human (endogenous in A549)) (UniProt P36544). Particulars: scale: % of viable cells relative to the control.
Assay [2] shares this target.
For assay [3] the target is unchanged. This is another data set of the same source.
Assay [4] has the same target. This is another data set of the same source.
Assay [5] has as its target nicotinic acetylcholine receptor of α7 type (α7-nAChR) (human (endogenous in A549), UniProt P36544 23-502). Briefly: cell-based or functional assay.

nicotinic acetylcholine receptor of α7 type (α7-nAChR) (human (endogenous in A549)), sequence (P36544 23-502): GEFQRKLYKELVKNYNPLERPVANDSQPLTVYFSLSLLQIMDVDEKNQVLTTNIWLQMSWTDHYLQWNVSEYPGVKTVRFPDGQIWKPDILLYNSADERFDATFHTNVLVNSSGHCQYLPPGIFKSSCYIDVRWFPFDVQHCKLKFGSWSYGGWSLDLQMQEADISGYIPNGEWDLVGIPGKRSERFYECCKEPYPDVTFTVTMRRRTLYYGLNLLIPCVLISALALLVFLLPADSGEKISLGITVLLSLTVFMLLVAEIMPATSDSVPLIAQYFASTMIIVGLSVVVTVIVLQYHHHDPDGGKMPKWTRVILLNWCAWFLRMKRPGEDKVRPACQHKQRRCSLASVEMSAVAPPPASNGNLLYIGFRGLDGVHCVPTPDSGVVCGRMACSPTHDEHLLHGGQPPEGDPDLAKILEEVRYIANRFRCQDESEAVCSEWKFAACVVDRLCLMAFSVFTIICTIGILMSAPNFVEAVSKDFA
nicotinic acetylcholine receptor of α7 type (α7-nAChR), sequence (P36544 23-502): as above

Regarding chimeric protein NTII/SL-1(I), the antiproliferative activity in A549 cells, WST-1 test, 48 h with 1 μM protein, % of viable cells relative to the control in assay [1] was determined as 70.
Molecule “synthetic peptide “loop III” with the sequence of loop III of SLURP-1” registered an IC50 of inhibition of ACh-evoked currents at human α7-nAChRs expressed in X. laevis oocytes (two-electrode voltage clamp, 100 μM ACh) in assay [2] of over 250000 nM.
For “synthetic peptide “loop I” mimicking loop I of SLURP-1”, the IC50 of inhibition of ACh-evoked currents at human α7-nAChRs expressed in X. laevis oocytes (two-electrode voltage clamp, 100 μM ACh) in assay [2] was 74000 nM. The molecule also displayed an EC50 of the inhibition of A549 cell migration, scratch assay (control cells without knock-down) in assay [3] of 226 nM. The molecule also displayed an EC50 of the decrease of A549 cell viability, WST-1 test, 48 h in assay [4] of 1800 nM.

B1: recombinant analogue of human SLURP-1 (rSLURP-1) (natural protein, UniProt P55000 23-103, looked up)
chain: LKCYTCKEPMTSASCRTITRCKPEDTACMTTLVTVEAEYPFNQSPVVTRSCSSSCVATDPDSIGAAHLIFCCFRDLCNSEL
As to B1, in assay [5], the “EC50 of the decrease of A549 cell viability, WST-1 test, 48 h” value was determined as 10.1 nM and the “IC50 of inhibition of ACh-evoked currents at human α7-nAChRs expressed in X. laevis oocytes (two-electrode voltage clamp, 100 μM ACh)” value came out at 12000 nM.
